Data reported in PMC515284, “Site-specific mutagenesis of Drosophila proliferating cell nuclear antigen enhances its effects on calf thymus DNA polymerase δ” (BMC Biochemistry, 2004).
Substitutions are numbered along the chain they refer to. In names and notes the source's numbering stands. Blank lines part the entries; values can stand above or below the binder they belong to.

Target: T1, calf thymus DNA polymerase δ (two-subunit form) (bovine (endogenous in calf thymus), UniProt P28339 1-1106; P49004 1-469)
T1 construct: DNA polymerase δ larger, catalytic subunit p125, calf thymus (bovine); DNA polymerase δ smaller subunit p50, calf thymus (bovine); all experiments used the two-subunit form (p125 and p50); also called pol δ; calf thymus pol δ; source: purified from calf thymus (to apparent homogeneity)
Experiment: native gel or EMSA; nondenaturing PAGE band mobility shift of 32P-labelled 30-21-mer template-primer (0.1 pmol) with 10 ng pol δ and 70 ng PCNA; without MgCl2, 3 mM EDTA in incubation and gel buffer; essentially qualitative; the complex holds DNA as well
Details: both partners purified

T1 sequence (P28339 whole entry, stated change not applied, chain 1 of 2): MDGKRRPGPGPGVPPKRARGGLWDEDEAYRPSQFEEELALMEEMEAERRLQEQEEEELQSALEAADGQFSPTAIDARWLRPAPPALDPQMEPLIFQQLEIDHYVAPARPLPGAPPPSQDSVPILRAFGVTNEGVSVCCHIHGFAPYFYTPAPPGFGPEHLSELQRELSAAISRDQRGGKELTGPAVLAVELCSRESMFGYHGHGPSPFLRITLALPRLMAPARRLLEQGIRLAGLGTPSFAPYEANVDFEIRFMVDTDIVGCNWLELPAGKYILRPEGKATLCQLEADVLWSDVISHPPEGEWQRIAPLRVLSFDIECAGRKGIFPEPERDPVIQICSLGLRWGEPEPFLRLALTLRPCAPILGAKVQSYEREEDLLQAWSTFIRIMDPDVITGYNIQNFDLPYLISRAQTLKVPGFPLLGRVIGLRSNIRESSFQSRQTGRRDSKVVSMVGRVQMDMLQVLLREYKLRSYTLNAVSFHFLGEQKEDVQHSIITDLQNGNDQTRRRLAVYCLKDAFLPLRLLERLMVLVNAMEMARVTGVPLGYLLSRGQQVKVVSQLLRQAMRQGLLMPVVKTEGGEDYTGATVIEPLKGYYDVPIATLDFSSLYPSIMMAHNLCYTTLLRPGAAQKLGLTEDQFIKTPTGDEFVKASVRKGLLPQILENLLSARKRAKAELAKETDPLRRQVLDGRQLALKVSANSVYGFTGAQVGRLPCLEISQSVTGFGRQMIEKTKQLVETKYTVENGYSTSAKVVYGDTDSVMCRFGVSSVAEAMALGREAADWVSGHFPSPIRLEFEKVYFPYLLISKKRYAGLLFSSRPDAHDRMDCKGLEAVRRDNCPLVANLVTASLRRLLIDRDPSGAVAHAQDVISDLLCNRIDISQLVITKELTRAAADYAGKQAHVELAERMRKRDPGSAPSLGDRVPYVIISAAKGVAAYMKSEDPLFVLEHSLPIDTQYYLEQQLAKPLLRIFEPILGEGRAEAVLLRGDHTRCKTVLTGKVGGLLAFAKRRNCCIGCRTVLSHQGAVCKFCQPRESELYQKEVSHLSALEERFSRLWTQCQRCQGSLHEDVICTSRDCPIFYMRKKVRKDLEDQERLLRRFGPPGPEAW
T1 sequence (P49004 whole entry, stated change not applied, chain 2 of 2): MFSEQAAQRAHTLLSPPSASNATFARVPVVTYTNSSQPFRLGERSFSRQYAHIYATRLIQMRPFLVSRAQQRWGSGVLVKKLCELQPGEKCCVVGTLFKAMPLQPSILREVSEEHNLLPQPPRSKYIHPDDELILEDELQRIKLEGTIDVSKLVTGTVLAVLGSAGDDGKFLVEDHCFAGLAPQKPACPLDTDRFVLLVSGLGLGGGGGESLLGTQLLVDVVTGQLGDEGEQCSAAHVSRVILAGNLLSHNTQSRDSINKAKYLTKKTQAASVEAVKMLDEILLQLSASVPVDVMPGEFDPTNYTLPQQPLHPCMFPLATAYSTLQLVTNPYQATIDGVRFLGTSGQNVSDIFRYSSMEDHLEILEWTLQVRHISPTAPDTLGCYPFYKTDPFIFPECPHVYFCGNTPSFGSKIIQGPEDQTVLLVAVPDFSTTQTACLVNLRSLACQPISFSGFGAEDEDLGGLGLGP

binding result: binds
B1: NH2-terminally his-tagged Drosophila PCNA with amino acids 119-133 replaced by the corresponding human sequence (other, Drosophila melanogaster | human, UniProt P17917 1-118, looked up)
chain: MFEARLGQATILKKILDAIKDLLNEATFDCSDSGIQLQAMDNSHVSLVSLTLRSDGFDKFRCDRNLSMGMNLGSMAKILKCANNEDNVTMKAQDNADTVTIMFESANQEKVSDYEMKLMDLDVEQLGIPEQEYSCVVRMPAMEFARICRDLAQFSESVVICCTKEGVKFSASGDVGTANIKLAQTGSVDKEEEAVIIEMQEPVTLTFACRYLNAFTKATPLSTQVQLSMCADVPLVVEYAIKDLGHIRYYLAPKIEDNET
notes: PCNA, Drosophila melanogaster, the stretch before the interdomain connector loop (up to residue 118); PCNA, Drosophila melanogaster, the stretch after the interdomain connector loop (from residue 134); source: E. coli M15 [pREP4], purified (Ni2+-IDA Sepharose); not shown: His tag, N-terminal, kept

binding result: binds
B2: NH2-terminally his-tagged Drosophila PCNA with glutamine 123 mutated to valine (natural protein, Drosophila melanogaster, UniProt P17917 1-260, looked up)
chain: B1 chain with D120N, Q125H, Q131T, E132D, Y133F
notes: proliferating cell nuclear antigen (PCNA), Drosophila melanogaster, with Q123V; also called Q123V dPCNA; Q123V; source: E. coli M15 [pREP4], purified (Ni2+-IDA Sepharose); not shown: His tag, N-terminal, kept
